Reference: the array DNA melting data of Ke et al.

Assay: melting temperature; melt of duplexes
Conditions: sodium 0.0675 M; strand 1 µM

Row | Substance | Tm
1 | CGACGTGCGACATGTGCTG+CAGCACATTTTGCACGTCG ((((((((.(.((((((((+)))))))).).)))))))) | 51.4 °C
2 | CGACGTGCATGATGTGCTG+CAGCACATTCTGCACGTCG (((((((((..((((((((+))))))))..))))))))) | 52.9 °C
3 | CGACGTGCTGAATGTGCTG+CAGCACATAACGCACGTCG ((((((((...((((((((+))))))))...)))))))) | 50 °C
4 | CGACGTGCAAAATGTGCTG+CAGCACATACCGCACGTCG ((((((((...((((((((+))))))))...)))))))) | 48.1 °C
5 | CGACGTGCAATATGTGCTG+CAGCACATCCTGCACGTCG (((((((((..((((((((+))))))))..))))))))) | 49.6 °C
6 | CGACGTGCTTCATGTGCTG+CAGCACATAGTGCACGTCG ((((((((...((((((((+))))))))...)))))))) | 44.4 °C
7 | CGACGTGCCCCATGTGCTG+CAGCACATACTGCACGTCG ((((((((...((((((((+))))))))...)))))))) | 45.9 °C
8 | CGACGTGCACCATGTGCTG+CAGCACATAACGCACGTCG ((((((((...((((((((+))))))))...)))))))) | 43.8 °C
9 | CGACGTGCAAGATGTGCTG+CAGCACATTTAGCACGTCG ((((((((.(.((((((((+)))))))).).)))))))) | 51.1 °C
10 | CGACGTGCAAGATGTGCTG+CAGCACATGATGCACGTCG (((((((((..((((((((+))))))))..))))))))) | 52.3 °C
11 | CGACGTGCGGTATGTGCTG+CAGCACATATAGCACGTCG ((((((((..(((((((((+)))))))))..)))))))) | 56.4 °C
12 | CGACGTGCAGTATGTGCTG+CAGCACATGGTGCACGTCG (((((((((..((((((((+))))))))..))))))))) | 53.9 °C
13 | CGACGTGCCTTATGTGCTG+CAGCACATTACGCACGTCG ((((((((.(.((((((((+)))))))).).)))))))) | 47.7 °C
14 | CGACGTGCGCAATGTGCTG+CAGCACATTAGGCACGTCG ((((((((..(((((((((+)))))))))..)))))))) | 52.7 °C
15 | CGACGTGCTGGATGTGCTG+CAGCACATTATGCACGTCG ((((((((...((((((((+))))))))...)))))))) | 52 °C
16 | CGACGTGCATTATGTGCTG+CAGCACATCTGGCACGTCG ((((((((...((((((((+))))))))...)))))))) | 48.4 °C
17 | CGACGTGCGTAATGTGCTG+CAGCACATTGTGCACGTCG ((((((((..(((((((((+)))))))))..)))))))) | 52 °C
18 | CGACGTGCCGCATGTGCTG+CAGCACATTGTGCACGTCG ((((((((...((((((((+))))))))...)))))))) | 45.7 °C
19 | CGACGTGCCGAATGTGCTG+CAGCACATACTGCACGTCG ((((((((.(.((((((((+)))))))).).)))))))) | 50.2 °C
20 | CGACGTGCTTGATGTGCTG+CAGCACATGCAGCACGTCG (((((((((..((((((((+))))))))..))))))))) | 51.8 °C
21 | CGACGTGCGTAATGTGCTG+CAGCACATTTTGCACGTCG ((((((((..(((((((((+)))))))))..)))))))) | 54.4 °C
22 | CGACGTGCCGGATGTGCTG+CAGCACATGTGGCACGTCG (((((((((..((((((((+))))))))..))))))))) | 57.3 °C
23 | CGACGTGCGCAATGTGCTG+CAGCACATAGTGCACGTCG ((((((((.(.((((((((+)))))))).).)))))))) | 51.6 °C
24 | CGACGTGCCGGATGTGCTG+CAGCACATGACGCACGTCG ((((((((...((((((((+))))))))...)))))))) | 46.3 °C

Row | Substance | Tm
25 | CGACGTGCGAAATGTGCTG+CAGCACATATCGCACGTCG ((((((((((.((((((((+)))))))).)))))))))) | 57.4 °C
26 | CGACGTGCTCCATGTGCTG+CAGCACATTAGGCACGTCG ((((((((...((((((((+))))))))...)))))))) | 48.4 °C
27 | CGACGTGCGATATGTGCTG+CAGCACATGAGGCACGTCG ((((((((...((((((((+))))))))...)))))))) | 53.1 °C
28 | CGACGTGCCGCATGTGCTG+CAGCACATTAGGCACGTCG (((((((((..((((((((+))))))))..))))))))) | 55.3 °C
29 | CGACGTGCGTTATGTGCTG+CAGCACATTGAGCACGTCG ((((((((...((((((((+))))))))...)))))))) | 54 °C
30 | CGACGTGCCTCATGTGCTG+CAGCACATTGCGCACGTCG ((((((((...((((((((+))))))))...)))))))) | 47.5 °C
31 | CGACGTGCCACATGTGCTG+CAGCACATTAAGCACGTCG ((((((((...((((((((+))))))))...)))))))) | 48.6 °C
32 | CGACGTGCGCAATGTGCTG+CAGCACATATTGCACGTCG ((((((((...((((((((+))))))))...)))))))) | 49.2 °C
33 | CGACGTGCATCATGTGCTG+CAGCACATTACGCACGTCG ((((((((.(.((((((((+)))))))).).)))))))) | 48.1 °C
34 | CGACGTGCAAAATGTGCTG+CAGCACATTTGGCACGTCG ((((((((.((((((((((+)))))))))).)))))))) | 57.6 °C
35 | CGACGTGCGGCATGTGCTG+CAGCACATGTCGCACGTCG (((((((((.(((((((((+))))))))).))))))))) | 63.5 °C
36 | CGACGTGCCTGATGTGCTG+CAGCACATAGAGCACGTCG ((((((((...((((((((+))))))))...)))))))) | 51.2 °C
37 | CGACGTGCGACATGTGCTG+CAGCACATATGGCACGTCG ((((((((.(.((((((((+)))))))).).)))))))) | 50.2 °C
38 | CGACGTGCCCTATGTGCTG+CAGCACATAGGGCACGTCG (((((((((((((((((((+))))))))))))))))))) | 64.4 °C
39 | CGACGTGCATTATGTGCTG+CAGCACATGGCGCACGTCG ((((((((...((((((((+))))))))...)))))))) | 48.4 °C
40 | CGACGTGCATGATGTGCTG+CAGCACATAAGGCACGTCG ((((((((.(.((((((((+)))))))).).)))))))) | 52.8 °C
41 | CGACGTGCGTGATGTGCTG+CAGCACATACTGCACGTCG ((((((((...((((((((+))))))))...)))))))) | 51.1 °C
42 | CGACGTGCTTTATGTGCTG+CAGCACATAGCGCACGTCG ((((((((..(((((((((+)))))))))..)))))))) | 47.9 °C
43 | CGACGTGCCTCATGTGCTG+CAGCACATCGTGCACGTCG ((((((((...((((((((+))))))))...)))))))) | 43 °C
44 | CGACGTGCTTAATGTGCTG+CAGCACATATCGCACGTCG ((((((((...((((((((+))))))))...)))))))) | 48 °C
45 | CGACGTGCTGCATGTGCTG+CAGCACATTCGGCACGTCG ((((((((.(.((((((((+)))))))).).)))))))) | 53.2 °C
46 | CGACGTGCATCATGTGCTG+CAGCACATGCTGCACGTCG (((((((((.(((((((((+))))))))).))))))))) | 55.8 °C
47 | CGACGTGCGAAATGTGCTG+CAGCACATCGCGCACGTCG (((((((((..((((((((+))))))))..))))))))) | 53.8 °C
48 | CGACGTGCTCGATGTGCTG+CAGCACATAGCGCACGTCG ((((((((.(.((((((((+)))))))).).)))))))) | 51.6 °C

Row | Substance | Tm
49 | CGACGTGCGGTATGTGCTG+CAGCACATGAAGCACGTCG ((((((((...((((((((+))))))))...)))))))) | 55.3 °C
50 | CGACGTGCGAGATGTGCTG+CAGCACATTGTGCACGTCG ((((((((...((((((((+))))))))...)))))))) | 49.7 °C
51 | CGACGTGCGACATGTGCTG+CAGCACATACGGCACGTCG ((((((((...((((((((+))))))))...)))))))) | 48.8 °C
52 | CGACGTGCCTCATGTGCTG+CAGCACATCCGGCACGTCG (((((((((..((((((((+))))))))..))))))))) | 51.2 °C
53 | CGACGTGCATCATGTGCTG+CAGCACATCTGGCACGTCG ((((((((...((((((((+))))))))...)))))))) | 47.5 °C
54 | CGACGTGCACAATGTGCTG+CAGCACATAAGGCACGTCG ((((((((...((((((((+))))))))...)))))))) | 46.8 °C
55 | CGACGTGCCTGATGTGCTG+CAGCACATAAGGCACGTCG ((((((((((.((((((((+)))))))).)))))))))) | 59 °C
56 | CGACGTGCCAAATGTGCTG+CAGCACATTTCGCACGTCG ((((((((.((((((((((+)))))))))).)))))))) | 54.1 °C
57 | CGACGTGCGGAATGTGCTG+CAGCACATGGCGCACGTCG (((((((((..((((((((+))))))))..))))))))) | 58.4 °C
58 | CGACGTGCTCTATGTGCTG+CAGCACATTTCGCACGTCG ((((((((...((((((((+))))))))...)))))))) | 47.3 °C
59 | CGACGTGCGCCATGTGCTG+CAGCACATTTAGCACGTCG ((((((((...((((((((+))))))))...)))))))) | 50.1 °C
60 | CGACGTGCGCAATGTGCTG+CAGCACATAGCGCACGTCG ((((((((((.((((((((+)))))))).)))))))))) | 61.2 °C
61 | CGACGTGCTATATGTGCTG+CAGCACATTGCGCACGTCG ((((((((...((((((((+))))))))...)))))))) | 47.4 °C
62 | CGACGTGCCGTATGTGCTG+CAGCACATTTAGCACGTCG ((((((((...((((((((+))))))))...)))))))) | 48.4 °C
63 | CGACGTGCAAGATGTGCTG+CAGCACATGAAGCACGTCG ((((((((...((((((((+))))))))...)))))))) | 52.2 °C
64 | CGACGTGCGAAATGTGCTG+CAGCACATTGCGCACGTCG (((((((((.(((((((((+))))))))).))))))))) | 60.2 °C
65 | CGACGTGCTAGATGTGCTG+CAGCACATAGAGCACGTCG (((((((((..((((((((+))))))))..))))))))) | 53.8 °C
66 | CGACGTGCCATATGTGCTG+CAGCACATAAAGCACGTCG ((((((((..(((((((((+)))))))))..)))))))) | 51.3 °C
67 | CGACGTGCACCATGTGCTG+CAGCACATGCAGCACGTCG ((((((((..(((((((((+)))))))))..)))))))) | 50.4 °C
68 | CGACGTGCAGTATGTGCTG+CAGCACATTTGGCACGTCG ((((((((...((((((((+))))))))...)))))))) | 49.2 °C
69 | CGACGTGCGCGATGTGCTG+CAGCACATTCTGCACGTCG ((((((((...((((((((+))))))))...)))))))) | 50.4 °C
70 | CGACGTGCGCTATGTGCTG+CAGCACATGGCGCACGTCG ((((((((((.((((((((+)))))))).)))))))))) | 63.2 °C
71 | CGACGTGCTAGATGTGCTG+CAGCACATACAGCACGTCG (((((((((..((((((((+))))))))..))))))))) | 53.2 °C
72 | CGACGTGCATAATGTGCTG+CAGCACATTCAGCACGTCG ((((((((..(((((((((+)))))))))..)))))))) | 52 °C
